Results from patent US10494417B2, “Peptide inhibitors of BCR-ABL oligomerization” (University of Utah Research Foundation, priority 2014, dated 2019).
Entries after “also recorded” stand apart in the source; their conditions may differ.

Tests used:
[1] = tested on: CD34+ cells from newly diagnosed CML patients; test: Proliferation of lentivirus-infected CD34+ cells from newly diagnosed CML patients; assay type: cell-based, human; details: for cell growth, in words: lentiviral CCmut3 compared with EV cells treated with 2.5 μM imatinib
Method: Mononuclear cells (MNCs) were separated from the peripheral blood of patients with newly diagnosed or therapy-resistant CML with a documented T315I mutation, using Ficoll (Nycomed, Oslo, Norway). Isolation of the CD34^+ fraction was done on an autoMACS Pro (Miltenyi Biotech). CD34^+ progenitors were maintained at 1×10^6 cells/mL in RPMI1640 containing 20% FBS and 5 μL/mL StemSpan CC100 (Stem Cell Technologies, Vancouver, BC, Canada). Cells were infected with lentivirus at a multiplicity of infection (MOI) of 5 for each construct at 24 and 48 hours following harvest (fresh cells) or thaw (frozen cells). Cells were sorted on a BD FACSAria cytometer after 72 h, and GFP-positive cells were returned to culture medium for future experiments. All patients gave their informed consent in accordance with the Declaration of Helsinki, and all studies with human specimens were approved by The University of Utah Institutional Review Board (IRB).
Cell proliferation was assessed using the CellTiter 96® AQueous One Solution Cell Proliferation Assay (MTS assay, Promega) according to manufacturer instructions. […] In some experiments, cell proliferation was assessed using a Neubauer chamber and trypan blue dye exclusion.
Mononuclear cells (MNCs) from peripheral blood of patients with newly diagnosed or TKI-resistant CML were separated by Ficoll (Nycomed, Oslo, Norway), and the CD34+ fraction was isolated using an autoMACS Pro Separator (Miltenyi Biotech, San Diego, Calif., USA). Purity was determined to be >90% by flow cytometric analysis using a Guava 6HT flow cytometer (Millipore, Billerica, Mass., USA). […]
293FT cells (Life Technologies, Grand Island, N.Y., USA) were grown in DMEM with 10% FBS, 100 U/ml penicillin-streptomycin, 2 mM L-glutamine, 0.1 mM MEM-non-essential amino acids, and 1 mM sodium pyruvate (Life Technologies, Grand Island, N.Y., USA). […] Lentiviral titers were determined. […]
Cell proliferation was assessed using a […] viability assay (MTS assay) utilizing CellTiter 96® AQueous One Solution Cell Proliferation Assay (Promega) according to manufacturer instructions. […]

K562 cells = test: Proliferation/viability of transfected K562 cells (trypan blue exclusion); assay type: cell-based, human; details: for proliferation/viability of K562 cells: trypan blue exclusion
Method: K562 cells, human leukemia Bcr-Abl^+ cells (gifted from Kojo Elenitoba-Johnson, University of Michigan), were grown in RPMI 1640 media supplemented with 10% FBS, 1% penicillin-streptomycin-glutamine, and 0.1% gentamicin (complete medium). […] Transfections were carried out two days following cell passaging. Then, 2.0×10^6 cells were collected and transfected with 6 μg pf pEGFP, pEGFP-CC^mut3, pmCherry, or pmCherry-CC^mut3 according to the Cell Line Nucleofector Kit V protocol, program T-013, using the Amaxa Nucleofector II (Lonza Group, Basel, Switzerland).
Cell counts were performed using a standard light microscope.
Two days following cell passaging, 2.0×10^6 cells were collected by centrifugation at 500×g for 10 min for each transfection group. Following cell collection, 6 lig DNA (pEGFP, pEGFP-CC, pEGFP-CCmut3, pEGFP-Helix2WT, pEGFP-Helix2mut3, pmCherry, pmCherry-CCmut3, or pmCherry-CappedHelix2mut3) was transfected into cells according to the Cell Line Nucleofector® Kit V protocol (program T-013) using the Amaxa Nucleofector II (Lonza Group, Basel, Switzerland). Following transfection, the DNA/cell mixture was added to 10 mL Complete RPMI 1640 media and allowed to incubate at 37° C. for 24, 48, or 72 h until analysis, depending on the assay.
Forty-eight or 72 h following transfection, 100 μL of treated K562 or Ba/F3-p210 cells was mixed with 100 μL trypan blue solution (Life Technologies). The numbers of viable cells (those impermeable to the trypan blue dye) from four different quadrants in an INCYTO™ C-CHIP™ Neubauer hemacytometer (VWR International, Radnor, Pa., USA) were counted using a standard light microscope. Quadrant counts were then averaged to obtain the number of viable cells per mL. For experiments using the Helix2mut3 construct, counts were performed on one aliquot per transfection (n=3 in replicate). In experiments involving the CappedHelix2mut3 construct, counts were performed three times using separate 100 pt aliquots from one transfection (n=1 in triplicate).

B1: CCmut3: modified Bcr-Abl coiled-coil domain (residues 1-72) with mutations C38A, K39E, S41R, L45D, E48R, Q60E (protein)
chain: MVDPVGFAEAWKAQFPDSEPPRMELRSVGDIEQELERAEARIRRDEQRVNQERFRMIYLETLLAKEKKSYDR
[1]
  cell growth, in words: significant reduction compared to inhibition by imatinib
[1]; listed as CC^mut3
  cell growth, in words: considerably more pronounced reduction of growth than observed with IM
[1]; lentiviral CCmut3 vs EV, trypan blue exclusion
  reduction of cell proliferation/growth: more than 2 fold
K562 cells; 48 h following transfection, vs EGFP control, n=3
  proliferation/viability of K562 cells: statistically significant decrease in the proliferation of K562 cells
K562 cells; 72 h following transfection, vs mCherry control, n=1
  proliferation/viability of K562 cells: potent inhibition of cell proliferation
K562 cells; transfected, vs EGFP and WT control (FIG. 9)
  inhibition of cell proliferation of K562 cells: inhibits proliferation; also recorded: significantly greater inhibition
